Where no end group is shown, it is not given here.

A short description of the first data set: First-order nonenzymatic deamidation of pentapeptides in Tris buffer. The conditions noted are these: pH 7.4, 37.0° C., 0.15 M Tris HCl; Asn pentapeptides. It is filed as physicochemical. Summed up:
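First-order deamidation rates determined for XxxAsnYyy and XxxGlnYyy pentapeptides in 0.15 M Tris buffer, pH 7.4, 37° C. Not all values were measured directly: several Asn rates were estimated and most Gln rates came from surface fitting.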
Take “GlySerAsnLysGly (GSNKG; printed: GlySerAsnLysGly)”: the “First-Order Deamidation Halftimes of GlyXxxAsnYyyGly” value stood at 55.5 days.
Same read-out and setting: as for “GlyCysAsnMetGly (GCNMG; printed: GlyCysAsnMetGly)”, the figure is 64.5 days; as for “GlyHisAsnAspGly (GHNDG; printed: GlyHisAsnAspGly)”, 31.2 days; as for “GlyTyrAsnThrGly (GYNTG; printed: GlyTyrAsnThrGly)”, 38.1 days.
Turning to “GlyGluAsnGluGly (GENEG; printed: GlyGluAsnGluGly)”, the “First-Order Deamidation Halftimes of GlyXxxAsnYyyGly” value was found to be 60.3 days.
Same read-out and setting: the same measure for “GlyLeuAsnThrGly (GLNTG; printed: GlyLeuAsnThrGly)”: 46.1 days; for “GlySerAsnMetGly (GSNMG; printed: GlySerAsnMetGly)”: 54.9 days; for “GlyLysAsnTrpGly (GKNWG; printed: GlyLysAsnTrpGly)”: 98.1 days.
The same measure, in the same setting: as for “GlyValAsnCysGly (GVNCG; printed: GlyValAsnCysGly)”, the figure is 63.2 days; as for “GlyAmCysAsnIleGly (CNIG; not fully specified (N-terminus); printed as GlyAmCysAsnIleGly)”, 250 days; as for “GlyThrAsnAspGly (GTNDG; printed: GlyThrAsnAspGly)”, 27.9 days.
Turning to “GlyProAsnLysGly (GPNKG; printed: GlyProAsnLysGly)”, the “First-Order Deamidation Halftimes of GlyXxxAsnYyyGly” value is 67.8 days.
Same read-out and setting: as for “GlyGlyAsnThrGly (GGNTG; printed: GlyGlyAsnThrGly)”, the figure is 39.8 days; as for “GlyProAsnTrpGly (GPNWG; printed: GlyProAsnTrpGly)”, 122 days.
Still for that read-out and setting: as for “GlyAspAsnMetGly (GDNMG; printed: GlyAspAsnMetGly)”, the figure is 57.3 days; as for “GlyTrpAsnHisGly (GWNHG; printed: GlyTrpAsnHisGly)”, 11.3 days.
Same read-out and setting: the same measure for “GlyMetAsnLysGly (GMNKG; printed: GlyMetAsnLysGly)”: 60.4 days; for “GlyCysAsnTrpGly (GCNWG; printed: GlyCysAsnTrpGly)”: 111 days.

Still in this data set, the particulars now being: pH 7.4, 37.0 ° C., 0.15 M Tris HCl; Gln pentapeptides; 52 values measured, rest derived from surface fitting.
For the substance “GlyHisGlnTyrGly (GHQYG; printed: GlyHisGlnTyrGly)”, the “First-Order Deamidation Halftimes of GlyXxxGlnYyyGly” value is recorded as 14000 days.
The same measure, in the same setting: the same measure for “GlyTyrGlnGluGly (GYQEG; printed: GlyTyrGlnGluGly)”: 8300 days.
Still for that read-out and setting: as for “GlyAspGlnCysGly (GDQCG; printed: GlyAspGlnCysGly)”, the figure is 2100 days; as for “GlyIleGlnAspGly (GIQDG; printed: GlyIleGlnAspGly)”, 8100 days.
On the same count and under the same terms, the same measure for “GlyGluGlnTrpGly (GEQWG; printed: GlyGluGlnTrpGly)”: 17000 days; for “GlyArgGlnTrpGly (GRQWG; printed: GlyArgGlnTrpGly)”: 11000 days; for “GlyTyrGlnCysGly (GYQCG; printed: GlyTyrGlnCysGly)”: 2200 days.
For the substance “GlySerGlnLeuGly (GSQLG; printed: GlySerGlnLeuGly)”, the “First-Order Deamidation Halftimes of GlyXxxGlnYyyGly” value is 6100 days.
In the case of “GlyThrGlnArgGly (GTQRG; printed: GlyThrGlnArgGly)”, the “First-Order Deamidation Halftimes of GlyXxxGlnYyyGly” value was 5100 days.
For the substance “GlyAlaGlnTyrGly (GAQYG; printed: GlyAlaGlnTyrGly)”, the “First-Order Deamidation Halftimes of GlyXxxGlnYyyGly” value came out at 10000 days.
In the case of “GlyThrGlnValGly (GTQVG; printed: GlyThrGlnValGly)”, the “First-Order Deamidation Halftimes of GlyXxxGlnYyyGly” value was determined as 5100 days.

The values are drawn from patent US20050118674A1, “Engineering of Controlled Deamidation Rates in Peptides, Proteins, and Similar Structures” (priority 2003, published 2005).
